Reference: the supplement of paper PMC9732359
± gives the uncertainty stated by the source.

Assay: protein stability index of a GFP-peptide fusion (yeast GPS) (PSI 1-4); higher = more stable; sorted into four equal gates, so the index is relative within each strain
Conditions: doa10∆
How it was run: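 Peptides tiling yeast proteins in 17-residue segments were fused downstream of GFP, with Cherry expressed from the same plasmid. As a pooled library in yeast, mid-log cultures grown in leucine-free medium were sorted into four equal gates by GFP/Cherry fluorescence ratio. Gate plasmids were PCR-amplified and Illumina-sequenced, and barcodes linked reads to strains. Each peptide received a protein stability index equal to the sum of each gate's read frequency times its gate number.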

First: FKKDLVIVLSNISHLLE [SWI1]
Second: FKKLTKDIFRYMQRTVE [RPB2]
The protein stability index of the first is higher: 1.86 ± 0.048 for the first, 1.63 ± 0.045 for the second.

First: FKLGKFNYVAVGDVSNL [QCR2]
Second: FKNDFNSFYYTSLLYLS [RPN9]
The protein stability index of the first is higher: 3.28 ± 0.1 for the first, 1.33 ± 0.049 for the second.

First: FKQAKERVMKNKVEENL [RPT2]
Second: FKVRTNLNDKFGIYILT [MED1]
The protein stability index of the first is higher: 3.11 ± 0.11 for the first, 1.76 ± 0.05 for the second.

First: FKYVSVRYEEKRELKQL [BRR2]
Second: FLIDVLKIYAQIEKKEI [YCG1]
The protein stability index of the first is higher: 2.63 ± 0.068 for the first, 1.26 ± 0.07 for the second.

Compared with FLLEKAGERKIPHDLNF [TAF14], FLNSNAVVVGTGNIKHE [COR1] is lower in protein stability index: 2.43 ± 0.067 for the first, 1.18 ± 0.085 for the second.

Going from FLQSQRQQQQRSILQSL [SWI1] to FLTNELIRLQMEKLDAK [SWI3], the protein stability index rises from 1.8 ± 0.062 to 2.97 ± 0.11.

First: FMEAQGAGIQIIMQADL [FAS2]
Second: FMKKLRAAKLAAPENEK [RPS15]
The protein stability index of the first is lower: 2.36 ± 0.094 for the first, 2.85 ± 0.14 for the second.

First: FMTKLLEVANDLQLLYV [IRR1]
Second: FNAGSNPPSYQSSEDVI [RPB7]
The protein stability index of the first is lower: 1.72 ± 0.11 for the first, 2.83 ± 0.24 for the second.

FNEKFPSLIQEEEEDTT [NUT1] and FNFFEPIKEAKIKHGSV [YMR129W/POM152] are within error of each other in protein stability index: 2.78 ± 0.086 for the first, 2.7 ± 0.054 for the second.

Compared with FNKNLGKGPGCGFWQPA [PRP8], FNNEKETEKFALERNWP [RPN12] is lower in protein stability index: 3.18 ± 0.16 for the first, 2.68 ± 0.07 for the second.

Compared with FNSVVNLSRYPKSGIDI [MTR3], FPNIAIRPTELRLPFSA [PRP8] is lower in protein stability index: 2.66 ± 0.055 for the first, 2.11 ± 0.084 for the second.

FPQGLNIVMDSKQNGIE [SSN8] and FPRSRSRSRSSIRSISP [ESC2] are within error of each other in protein stability index: 3.11 ± 0.091 for the first, 2.86 ± 0.2 for the second.

Going from FQALDSEETQFKYVEDR [ITC1] to FRALGIIPDGEILEHIC [RPB2], the protein stability index falls from 2.88 ± 0.097 to 2.43 ± 0.057.

Going from FRISLGLPVGAIMNCAD [RPL23A] to FRKVKLRVDEVQGKNLL [RPS1B], the protein stability index rises from 1.95 ± 0.045 to 3.25 ± 0.1.

Going from FSEEKAEEFDFNVPVVS [YAR002W/NUP60] to FSKGDADVLVDRVVSSD [SRP72], the protein stability index rises from 2.48 ± 0.18 to 3.28 ± 0.091.

Going from FSKIAEYYRIQKQLPQK [ESC2] to FSNRFLPVASPFHSHLL [FAS1], the protein stability index falls from 3.18 ± 0.16 to 2.5 ± 0.13.

FSQKANKTKAVDNTVPS [YOR098C/NUP1] and FSSLAISEINFLHESSF [CSI1] are within error of each other in protein stability index: 2.15 ± 0.085 for the first, 2.21 ± 0.038 for the second.

Compared with FTAEGIVPDLIINPHAI [RPB2], FTKKPVTPNDKIPEREE [SIR4] is higher in protein stability index: 2.24 ± 0.069 for the first, 3.05 ± 0.13 for the second.

Going from FTKNEEKLLKELENNEF [ITC1] to FTNPSIVKVFHGAFMDI [RRP6], the protein stability index falls from 2.26 ± 0.083 to 1.16 ± 0.084.

Compared with FTNRSTMMANFEEWIKM [BRN1], FTNVLTKYSDVLGFLQL [YJL039C/NUP192] is higher in protein stability index: 2.12 ± 0.18 for the first, 2.59 ± 0.072 for the second.

Compared with FTNVPLNLEQVTLNKYC [YJL039C/NUP192], FTPQEIEYCSAQPSVQS [FAS2] is higher in protein stability index: 1.99 ± 0.047 for the first, 2.88 ± 0.27 for the second.

Going from FTRIFLPIYDSLMSSQN [SIR3] to FVDDMLRDYRFEDATRE [SNF5], the protein stability index rises from 2.24 ± 0.045 to 2.92 ± 0.096.

Compared with FVDLNEKELQNEIKQLG [SRB4], FVEVERARVTKDLVEIK [RPN5] is higher in protein stability index: 2.31 ± 0.072 for the first, 3.37 ± 0.11 for the second.

Going from FVIGVIIGTFSDSYKVS [RRP40] to FVIHIQEKNFQTGIFVY [RPB5], the protein stability index rises from 1.43 ± 0.057 to 1.98 ± 0.062.

Compared with FVMKTRRRKGISTGGFM [SNU114], FVRQAAMIALSMILIQQ [RPN2] is lower in protein stability index: 3.44 ± 0.15 for the first, 1.35 ± 0.083 for the second.

Going from FYAAVQKNYADPEKDSI [SIN4] to GAHKFLDTYLPEDLNSL [SIR2], the protein stability index falls from 2.11 ± 0.083 to 1.85 ± 0.071.

Going from GAINVANCQRQLTEFWT [NNF1] to GALEEITKDHKVLARQQ [FAS2], the protein stability index falls from 3.2 ± 0.16 to 2.31 ± 0.25.

First: GALIHKAGLMTGGISGD [SMC1]
Second: GARFDDGAGGDNEVQRT [RPT1]
The protein stability index of the first is lower: 2.63 ± 0.16 for the first, 3.58 ± 0.2 for the second.

GARPGRVARRNAARKAE [RPS9A] and GATYRGKLVESEDSMNV [SMD3] are within error of each other in protein stability index: 3.3 ± 0.13 for the first, 3.17 ± 0.084 for the second.

Compared with GCNNLIKNISNRVGLTL [ARP9], GCVSYSPAALKQLASLK [YMR153W/NUP53] is lower in protein stability index: 3.28 ± 0.098 for the first, 1.7 ± 0.066 for the second.

Going from GDIVRMLETAGFSMNNP [SMC3] to GDLKLQVLLDEEYKQLV [RPO21], the protein stability index falls from 3.08 ± 0.095 to 2.48 ± 0.12.

GDLVYARVCTAEKELEA [RRP40] and GEHEKSNILLNSLTKYP [MED1] are within error of each other in protein stability index: 1.3 ± 0.09 for the first, 1.45 ± 0.08 for the second.

Going from GEIDFIKNIGKSLKNNF [YML103C/NUP188] to GEIVSINQINEAHPTKV [RPL20A], the protein stability index rises from 2.59 ± 0.21 to 3.17 ± 0.25.

GELDVLQIESVTKETVH [PRP8] and GELLHHPIMETIVNDSN [RPN9] are within error of each other in protein stability index: 2.54 ± 0.054 for the first, 2.6 ± 0.053 for the second.

Going from GESTVESEKLVTPEDVM [RPC82] to GETIKSNAVTQTNIWEE [SEM1], the protein stability index rises from 3.15 ± 0.09 to 3.37 ± 0.087.

Going from GFQDRSLPHFPKNSKTP [RPO31] to GFSFGSQLGGNKTVNEA [YJL041W/NSP1], the protein stability index rises from 2.7 ± 0.14 to 3.18 ± 0.072.

Going from GFVRNSFFSGLSPPEFL [RPO31] to GGALDNPFEDDMDGVDF [BRN1], the protein stability index rises from 2.99 ± 0.077 to 3.39 ± 0.054.

First: GGDVVKFQKLLQNSERD [SMC4]
Second: GGESAYFFQLQIRSADE [RPC11]
The protein stability index of the first is higher: 3.15 ± 0.073 for the first, 2.73 ± 0.06 for the second.

Compared with GGESMEGPKKCIQVNCL [SNM1], GGNNNNNSTGIANDNVI [SWI1] is higher in protein stability index: 1.92 ± 0.053 for the first, 2.87 ± 0.057 for the second.

GGQTKPVFHKKAKTTKK [RPL42A] and GGSFGNREEFINKLVKS [RPL7A] are within error of each other in protein stability index: 2.72 ± 0.056 for the first, 2.98 ± 0.22 for the second.

GGSGAATFSVSQASSDL [CSL4] and GHIAKLMATEYQDIEGG [RPB2] are within error of each other in protein stability index: 3.4 ± 0.08 for the first, 3.45 ± 0.29 for the second.

Going from GHSLGEYAALASLADVM [FAS1] to GIDPDETVPDNVKTSVS [RPO31], the protein stability index rises from 2.27 ± 0.061 to 2.83 ± 0.22.

First: GIFEKAKAKAVTSKVRN [YMR153W/NUP53]
Second: GIFNLLNTLFNPVTLNE [NUT1]
The protein stability index of the first is lower: 2.24 ± 0.1 for the first, 2.52 ± 0.051 for the second.

GIKATNGVVIATEKKSS [PRE8] and GIVSVSDPQMKVFDTLT [RPN1] are within error of each other in protein stability index: 2.91 ± 0.18 for the first, 2.81 ± 0.16 for the second.

First: GKGESVIFNDNVTETYS [SIR3]
Second: GKGHLVGRLASVVAKQL [RPL16A]
The protein stability index of the first is higher: 3.08 ± 0.21 for the first, 1.33 ± 0.057 for the second.

GKGNTFEKVGSHLYKAR [RPN14] and GKILTIKQQQQQQQQQN [YML103C/NUP188] are within error of each other in protein stability index: 2.93 ± 0.25 for the first, 2.77 ± 0.049 for the second.

GKIRGVEDDLVTVQTEL [SMC2] and GKKLTDEINTAQDKWHL [RET1] are within error of each other in protein stability index: 3.1 ± 0.12 for the first, 3.22 ± 0.1 for the second.
